Here are results for 1 substance from publication PMC4501363.

The test has as its target actin-related protein 1 (human (endogenous in HEK293T)) (UniProt P61163). The experiment in a line: co-sedimentation.

“actin-related protein 1 (from UniProt P61163 1-376) (natural protein)” returned a percent of Arp1 in the monomer/dimer pool of less than 5%.
